Key:
AncSZ = assay: phosphorylation enrichment, bacterial display (enrichment ratio); higher = better substrate or ligand; peptides without Tyr show the background
EPHB1 = EPHB1 (UniProt P54762); assay: as above
EPHB2 = EPHB2 (UniProt P29323); assay: as above
FGFR1 = FGFR1 (UniProt P11362); assay: as above
FGFR3 = FGFR3 (UniProt P22607); assay: as above
Fer (mouse) = assay: as above
Fes = Fes (UniProt P07332); assay: as above
Fyn = Fyn (UniProt P06241); assay: as above
Hck = Hck (UniProt P08631); assay: as above
Hck, sequence (P08631 whole entry, looked up): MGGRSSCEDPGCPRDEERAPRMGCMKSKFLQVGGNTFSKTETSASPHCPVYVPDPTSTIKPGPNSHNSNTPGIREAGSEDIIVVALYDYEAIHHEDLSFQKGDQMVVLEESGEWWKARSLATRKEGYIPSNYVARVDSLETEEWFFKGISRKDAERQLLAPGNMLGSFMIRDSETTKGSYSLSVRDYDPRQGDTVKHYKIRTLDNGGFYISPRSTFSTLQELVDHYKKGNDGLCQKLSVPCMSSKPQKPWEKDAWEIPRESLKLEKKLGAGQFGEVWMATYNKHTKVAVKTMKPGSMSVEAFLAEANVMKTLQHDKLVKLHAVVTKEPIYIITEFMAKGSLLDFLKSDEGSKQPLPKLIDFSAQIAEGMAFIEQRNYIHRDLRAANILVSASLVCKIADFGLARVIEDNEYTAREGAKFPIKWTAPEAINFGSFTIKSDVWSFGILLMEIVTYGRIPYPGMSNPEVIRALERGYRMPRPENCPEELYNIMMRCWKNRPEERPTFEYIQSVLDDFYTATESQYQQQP

Jak2 = Jak2 (UniProt O60674); assay: as above
Jak2, sequence (O60674 whole entry, looked up): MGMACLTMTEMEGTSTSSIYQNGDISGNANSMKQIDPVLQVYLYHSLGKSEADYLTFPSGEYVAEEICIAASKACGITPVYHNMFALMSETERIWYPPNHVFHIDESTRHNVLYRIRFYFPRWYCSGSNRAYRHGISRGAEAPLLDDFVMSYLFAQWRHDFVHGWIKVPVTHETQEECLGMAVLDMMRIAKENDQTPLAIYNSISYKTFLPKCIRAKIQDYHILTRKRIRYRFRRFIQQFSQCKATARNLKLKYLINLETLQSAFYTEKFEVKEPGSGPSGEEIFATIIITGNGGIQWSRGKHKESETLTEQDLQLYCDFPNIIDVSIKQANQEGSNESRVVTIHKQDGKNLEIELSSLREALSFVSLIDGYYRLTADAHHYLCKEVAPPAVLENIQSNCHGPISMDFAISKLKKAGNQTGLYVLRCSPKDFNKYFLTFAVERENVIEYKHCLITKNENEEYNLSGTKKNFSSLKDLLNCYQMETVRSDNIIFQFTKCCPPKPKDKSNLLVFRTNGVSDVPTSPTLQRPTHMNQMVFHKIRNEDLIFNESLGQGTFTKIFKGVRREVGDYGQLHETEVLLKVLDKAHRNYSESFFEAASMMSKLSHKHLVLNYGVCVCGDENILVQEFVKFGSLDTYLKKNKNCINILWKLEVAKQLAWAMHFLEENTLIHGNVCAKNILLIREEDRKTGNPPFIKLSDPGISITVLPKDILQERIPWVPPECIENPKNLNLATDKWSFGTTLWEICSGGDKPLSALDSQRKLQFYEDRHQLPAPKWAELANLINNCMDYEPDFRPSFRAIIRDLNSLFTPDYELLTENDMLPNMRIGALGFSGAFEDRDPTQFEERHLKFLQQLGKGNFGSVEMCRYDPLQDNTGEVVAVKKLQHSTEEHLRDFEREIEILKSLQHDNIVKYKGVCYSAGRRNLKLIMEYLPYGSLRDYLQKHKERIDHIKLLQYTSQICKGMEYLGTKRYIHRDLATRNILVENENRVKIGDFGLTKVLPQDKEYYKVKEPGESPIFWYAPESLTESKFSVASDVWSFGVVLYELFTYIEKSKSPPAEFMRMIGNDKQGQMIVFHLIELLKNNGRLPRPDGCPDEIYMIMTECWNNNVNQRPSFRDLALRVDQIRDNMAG

MERTK = MERTK (UniProt Q12866); assay: as above
c-Abl (mouse) = assay: as above
c-Src = assay: as above
Grb2 SH2 = Grb2 SH2 (UniProt P62993); assay: SH2 binding enrichment of the phosphorylated peptide, bacterial display (enrichment ratio); higher = better substrate or ligand; peptides without Tyr show the background
Grb2 SH2, sequence (P62993 whole entry, looked up): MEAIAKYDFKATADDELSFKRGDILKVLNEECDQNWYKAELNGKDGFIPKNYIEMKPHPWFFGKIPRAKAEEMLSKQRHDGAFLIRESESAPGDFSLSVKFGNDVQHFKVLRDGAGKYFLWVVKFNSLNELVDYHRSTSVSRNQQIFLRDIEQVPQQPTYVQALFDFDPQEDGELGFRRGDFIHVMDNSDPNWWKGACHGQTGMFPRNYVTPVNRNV

SHP2-C SH2 = assay: as above
c-Src SH2 = assay: as above
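Wherever SH2 binding enrichment of the phosphorylated peptide, bacterial display is given: peptide library displayed on the E. coli surface as eCPX fusions, selected cells deep-sequenced, score is each peptide's frequency after selection divided by its frequency in the input.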
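Wherever phosphorylation enrichment, bacterial display is given: 11-residue human phosphosite peptides and single-mutation variants displayed on the E. coli surface, counted by deep sequencing, each peptide's frequency after selection divided by its frequency in the unselected input library; frequency after pTyr selection over input frequency; kinase dosed for 20-30% of maximal phosphorylation in three min.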

FGFR1, sequence (P11362 whole entry, looked up): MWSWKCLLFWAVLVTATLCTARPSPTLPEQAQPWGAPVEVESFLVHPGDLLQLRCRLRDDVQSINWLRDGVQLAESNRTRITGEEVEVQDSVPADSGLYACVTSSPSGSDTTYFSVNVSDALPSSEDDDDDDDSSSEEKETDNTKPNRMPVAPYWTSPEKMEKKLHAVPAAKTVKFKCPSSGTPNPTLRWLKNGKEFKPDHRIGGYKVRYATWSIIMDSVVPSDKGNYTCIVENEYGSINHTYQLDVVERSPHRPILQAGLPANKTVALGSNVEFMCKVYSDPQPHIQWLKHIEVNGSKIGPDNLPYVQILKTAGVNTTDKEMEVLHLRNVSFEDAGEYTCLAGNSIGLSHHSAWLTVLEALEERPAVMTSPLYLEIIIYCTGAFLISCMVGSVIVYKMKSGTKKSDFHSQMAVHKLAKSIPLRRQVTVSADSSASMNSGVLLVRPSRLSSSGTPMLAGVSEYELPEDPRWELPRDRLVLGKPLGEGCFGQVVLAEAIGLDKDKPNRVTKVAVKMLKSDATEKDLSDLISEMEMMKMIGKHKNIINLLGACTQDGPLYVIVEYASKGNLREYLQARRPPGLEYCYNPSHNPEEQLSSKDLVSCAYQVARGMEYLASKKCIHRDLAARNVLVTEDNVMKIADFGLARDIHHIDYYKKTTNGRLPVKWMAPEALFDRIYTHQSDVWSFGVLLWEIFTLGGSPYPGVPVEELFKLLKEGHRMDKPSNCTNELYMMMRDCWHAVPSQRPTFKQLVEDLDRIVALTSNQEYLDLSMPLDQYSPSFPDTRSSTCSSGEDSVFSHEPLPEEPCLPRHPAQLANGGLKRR
EPHB2, sequence (P29323 whole entry, looked up): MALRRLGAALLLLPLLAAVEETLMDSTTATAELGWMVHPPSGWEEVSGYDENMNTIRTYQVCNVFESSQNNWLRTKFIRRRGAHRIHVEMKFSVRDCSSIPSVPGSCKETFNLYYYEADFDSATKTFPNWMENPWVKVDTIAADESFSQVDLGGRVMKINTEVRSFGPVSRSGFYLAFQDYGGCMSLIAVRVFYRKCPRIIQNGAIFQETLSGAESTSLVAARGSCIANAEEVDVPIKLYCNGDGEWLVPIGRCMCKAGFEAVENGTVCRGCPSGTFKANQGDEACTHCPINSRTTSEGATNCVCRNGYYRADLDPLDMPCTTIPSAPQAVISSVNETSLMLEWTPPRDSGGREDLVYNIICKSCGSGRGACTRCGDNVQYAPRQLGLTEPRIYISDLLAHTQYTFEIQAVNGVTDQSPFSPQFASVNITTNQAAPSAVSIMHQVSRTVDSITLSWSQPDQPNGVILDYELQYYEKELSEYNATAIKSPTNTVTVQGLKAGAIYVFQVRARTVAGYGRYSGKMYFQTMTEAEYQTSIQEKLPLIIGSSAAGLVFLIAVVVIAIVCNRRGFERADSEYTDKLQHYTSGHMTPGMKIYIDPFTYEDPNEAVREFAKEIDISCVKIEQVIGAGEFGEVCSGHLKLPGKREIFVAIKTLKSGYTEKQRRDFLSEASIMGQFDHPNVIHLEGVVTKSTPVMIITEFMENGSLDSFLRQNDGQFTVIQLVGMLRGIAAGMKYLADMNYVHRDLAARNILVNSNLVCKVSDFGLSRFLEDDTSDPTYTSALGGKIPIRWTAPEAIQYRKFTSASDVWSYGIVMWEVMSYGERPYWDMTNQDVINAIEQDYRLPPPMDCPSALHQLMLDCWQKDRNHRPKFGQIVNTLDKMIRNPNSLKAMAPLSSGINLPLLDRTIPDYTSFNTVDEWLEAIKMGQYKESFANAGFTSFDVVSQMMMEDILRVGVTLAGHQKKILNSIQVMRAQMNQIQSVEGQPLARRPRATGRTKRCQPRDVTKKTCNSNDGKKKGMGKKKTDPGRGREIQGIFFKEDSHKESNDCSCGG
Fes, sequence (P07332 whole entry, looked up): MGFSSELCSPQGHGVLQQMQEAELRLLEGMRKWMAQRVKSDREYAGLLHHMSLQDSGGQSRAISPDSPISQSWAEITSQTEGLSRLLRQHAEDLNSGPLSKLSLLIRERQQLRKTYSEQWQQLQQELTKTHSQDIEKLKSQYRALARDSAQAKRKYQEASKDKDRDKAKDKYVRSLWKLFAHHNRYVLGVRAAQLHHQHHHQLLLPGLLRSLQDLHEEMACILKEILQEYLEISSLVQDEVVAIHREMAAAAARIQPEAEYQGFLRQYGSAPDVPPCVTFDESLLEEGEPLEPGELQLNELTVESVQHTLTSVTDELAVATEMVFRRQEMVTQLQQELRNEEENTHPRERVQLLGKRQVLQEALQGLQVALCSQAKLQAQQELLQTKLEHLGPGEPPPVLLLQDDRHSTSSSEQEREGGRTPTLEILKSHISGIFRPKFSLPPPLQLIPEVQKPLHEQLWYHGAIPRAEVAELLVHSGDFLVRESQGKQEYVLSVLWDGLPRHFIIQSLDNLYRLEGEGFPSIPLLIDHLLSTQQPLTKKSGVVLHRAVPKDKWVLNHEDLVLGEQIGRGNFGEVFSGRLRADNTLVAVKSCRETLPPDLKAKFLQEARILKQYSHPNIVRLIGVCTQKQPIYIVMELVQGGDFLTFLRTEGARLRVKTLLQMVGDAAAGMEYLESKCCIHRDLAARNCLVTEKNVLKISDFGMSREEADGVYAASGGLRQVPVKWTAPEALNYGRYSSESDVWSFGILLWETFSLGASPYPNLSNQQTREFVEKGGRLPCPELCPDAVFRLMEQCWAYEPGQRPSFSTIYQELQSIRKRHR

Sequence	phosphorylation enrichment (AncSZ)	phosphorylation enrichment (EPHB1)	phosphorylation enrichment (EPHB2)	phosphorylation enrichment (FGFR1)	phosphorylation enrichment (FGFR3)	phosphorylation enrichment (Fer (mouse))	phosphorylation enrichment (Fes)	phosphorylation enrichment (Fyn)	phosphorylation enrichment (Hck)	phosphorylation enrichment (Jak2)	phosphorylation enrichment (MERTK)	phosphorylation enrichment (c-Abl (mouse))	phosphorylation enrichment (c-Src)	SH2 binding enrichment (Grb2 SH2)	SH2 binding enrichment (SHP2-C SH2)	SH2 binding enrichment (c-Src SH2)
NKYTTYLPWLP [C9orf24_Y126_R129W]	1.08	6.9	12.8	2.77	2.25	9.65	0.944	6.75	8.09	2.34	3.37	1.94	4.72	1.14	1.01	0.739
NLMPAYFKCIQ [CYP21A2_Y190_YF]	1.4	0.74	0.707	0.617	1.01	0.768	1.6	0.546	0.61	1.61	0.539	1.09	0.526	0.904	0.639	0.494
NNHGNYIVLLG [ETFDH_Y172_R175L]	0.979	7.55	3.86	2.81	1.71	0.363	0.902	0.458	0.433	0.833	1.66	0.644	0.522	0.983	1.14	0.587
NNIDYYKKTTN [FGFR2_Y657]	0.616	0.543	0.527	0.456	0.495	0.6	0.703	0.633	0.764	0.524	0.437	0.517	0.492	1.02	0.603	0.459
NPETCYQRLKK [TK2_Y190]	1.03	0.527	0.603	0.481	0.545	0.432	1.03	0.412	0.736	0.966	0.469	0.839	0.483	0.787	0.739	0.692
NQDRTYFESVR [SPEN_Y632_YF]	0.852	0.507	0.617	0.602	0.69	0.665	0.931	0.571	0.573	0.865	0.469	0.618	0.678	0.886	0.727	0.555
NQDRTYYERVR [SPEN_Y632_S635R]	0.617	0.411	0.467	0.457	0.486	0.511	0.639	0.606	2.31	0.499	0.452	0.525	0.896	0.901	1.04	3.98
NQELIYEGRRL [TBK1_Y354]	0.755	0.518	0.668	0.472	0.808	8.54	0.763	8.61	9.83	0.581	0.581	5	7.87	0.735	0.612	0.522
NRLNDYIFSFD [RARS1_Y516]	1.09	0.538	0.538	0.721	0.729	0.424	1.03	0.461	0.469	0.977	0.475	0.789	0.555	1.15	0.778	0.506
NSRFTCKLEVK [USH2A_Y3747_Y3747C_YF]	1.45	0.629	0.618	0.563	1	0.533	1.66	0.378	0.508	1.79	0.449	1.48	0.504	0.768	0.612	0.395
NTFEKYWLFFQ [GATM_Y103_P105L_YF]	1.29	0.721	0.682	0.761	1	0.478	1.44	0.501	0.68	1.2	0.544	1	0.538	0.975	0.886	0.758
NTGGFYDLFGG [PTPN11_Y63_D61G_YF]	1.05	0.829	0.899	0.478	0.719	3.82	1.18	7.59	5.68	1.1	9.2	0.836	4.17	1.09	0.784	0.677
NTGLDYIKFTW [HRH1_Y386]	1.37	0.647	0.742	1.64	1.26	0.402	1.31	0.39	0.495	1.92	0.605	0.902	0.612	0.892	0.811	0.475
NTGLEYIKFTW [HRH1_Y386_D385E]	1.16	0.572	0.633	0.76	0.851	0.449	1.09	0.531	0.58	1.37	0.474	0.657	0.495	1.11	0.778	0.614
NTQRPHFKGGG [TYROBP_Y111_Y111H_YF]	0.447	0.378	0.632	0.318	0.443	0.293	0.735	0.286	0.407	0.553	0.353	1.01	0.448	1.22	0.956	0.925
NTYEKYLGEEY [TF_Y669]	1.12	0.601	0.74	0.472	0.756	0.523	1.06	0.974	0.688	0.99	0.382	0.935	1.03	0.971	0.722	2.41
NTYEKYWLFYQ [GATM_Y103_P105L]	1.26	4.77	2.94	1.7	1.65	0.874	1.39	1.5	1.36	1.18	1.78	0.8	2.23	0.788	1.12	0.807
